Series [1] deals with C. glutamicum MetY enzyme (Corynebacterium glutamicum, UniProt Q79VI4). Briefly: biochemical.
Protocol: Cells were harvested and cell lysates from pellets were obtained using the Ribolyzer protocol and machine (Hybaid, UK). Cell extracts were centrifuged to obtain a soluble supernatant fraction of cytosolic protein. The method to determine the O-acetyl-homoserine sulfhydrylase activity in cell extracts was performed essentially as described in Yamagata, Methods in Enzymology, 1987, Vol. 143 pp 479-480. Cell extracts were added to a buffer of 100 mM KH2PO4 (pH 7.2) containing 5 mM O-acetyl-homoserine and 200 μM pyridoxal phosphate. […] The reaction was initiated by addition of Na-sulphide solution to a final concentration of 4 mM. After a 15 minute incubation at 30° C., the reaction was terminated and acidified by addition of 1/10 volume of 30% trichloroacetic acid. After centrifugation (5 minutes at 13,000 rpm) to remove precipitated protein, incubation at reduced atmospheric pressure in a Speed-Vac evaporator was performed to deplete residual H2S. The sulphide depleted solution was reacted with cyanide and nitroprusside as described in Yamagata supra. Absorption at 520 nm was determined and background corrected.
For series [2] the following is noted: reported specific activity; Bsu MetI from T7 promoter in E. coli; cited from earlier work.
For series [3] the following is noted: H.-S. Lee, personal communication; cited from earlier work.
The nature of series [4]: O-acetyl-homoserine sulfhydrylase activity in crude cell extracts. It is filed as biochemical.
Series [5] is described as follows: Cystathionine γ-synthase activity in crude cell extracts. It is filed as biochemical.
The nature of series [6]: Inhibition of the enzyme by methionine (Table 1). Format: biochemical.
The conditions of series [7]: reported specific activity; Bsu MetI from T7 promoter in E. coli; cited from earlier work. This is another data set of the same source.
Where [8] appears, read: in C. glutamicum from P15, crude extracts.
Setting [9] is: in E. coli from P15, crude extracts.

Like-named read-outs stand apart in the source and are kept apart here.

Here are results for 3 molecules from patent US20090221027A1 (BASF AG, priority 2005, published 2009).

Usually IC50 stands for the concentration that inhibits the measured activity by half. `CSCC[C@H](N)C(=O)O` [methionine, L-methionine] had a half-inhibitory concentration (IC50) in series [1] of roughly 5 mM.

B1: Cg1 MetY: C. glutamicum O-acetylhomoserine sulfhydrylase (protein, UniProt Q79VI4 1-437, looked up)
O-acetyl-L-homoserine …: MPKYDNSNADQWGFETRSIHAGQSVDAQTSARNLPIYQSTAFVFDSAEHAKQRFALEDLGPVYSRLTNPTVEALENRIASLEGGVHAVAFSSGQAATTNAILNLAGAGDHIVTSPRLYGGTETLFLITLNRLGIDVSFVENPDDPESWQAAVQPNTKAFFGETFANPQADVLDIPAVAEVAHRNSVPLIIDNTIATAALVRPLELGADVVVASLTKFYTGNGSGLGGVLIDGGKFDWTVEKDGKPVFPYFVTPDAAYHGLKYADLGAPAFGLKVRVGLLRDTGSTLSAFNAWAAVQGIDTLSLRLERHNENAIKVAEFLNNHEKVEKVNFAGLKDSPWYATKEKLGLKYTGSVLTFEIKGGKDEAWAFIDALKLHSNLANIGDVRSLVVHPATTTHSQSDEAGLARAGVTQSTVRLSVGIETIDDIIADLEGGFAAI
For B1, the O-Ac-Hse sulfhydrylase activity in series [2] was 6.0 µmol/min/mg. Moreover, in series [3], the Inhibition by methionine result is reported as “Yes”.

B2: Bsu MetI: Bacillus subtilis O-acetyl-homoserine sulfhydrylase with cystathionine-gamma-synthase activity, SEQ ID NO:2 (protein)
chain: MSQHVETKLAQIGNRSDEVTGTVSAPIYLSTAYRHRGIGESTGFDYVRTKNPTRQLVEDAIANLENGARGLAFSSGMAAIQTIMALFKSGDELIVSSDLYGGTYRLFENEWKKYGLTFHYDDFSDEDCLRSKITPNTKAVFVETPTNPLMQEADIEHIARITKEHGLLLIVDNTFYTPVLQRPLELGADIVIHSATKYLGGHNDLLAGLVVVKDERLGEEMFQHQNAIGAVLPPFDSWLLMRGMKTLSLRMRQHQANAQELAAFLEEQEEISDVLYPGKGGMLSFRLQKEEWVNPFLKALKTICFAESLGGVESFITYPATQTHMDIPEEIRIANGVCNRLLRFSVGIEHAEDLKEDLKQALCQVKEGAVSFE
As to B2, the O-Ac-Hse sulfhydrylase activity in series [4] (setting [8]) was 6.3 nmol/min; in series [4] (setting [9]), 199 nmol/min; in series [2], 7.0 µmol/min/mg. Further, the “Cystathionine γ-synthase activity” value in series [5] (setting [8]) was 30.2 nmol/min; in series [5] (setting [9]), 1900 nmol/min; in series [7], 1.5 µmol/min/mg. Further, the Inhibition by methionine entry in series [6] (setting [8]) and in series [6] (setting [9]) was “No” each time.
